Laboratory results published in US9605038B2, “Fusion peptide comprising dhFas-1 domain and MMP substrate and use thereof for preventing and treating rheumatoid arthritis” (Kyungpook National University Industry-Academic Cooperation …, priority 2010, dated 2017).
Entries after “also recorded” stand apart in the source; their conditions may differ.

How the values were obtained:
[1] = system: mouse fibroblast (NIH3T3); experiment: βig-h3-mediated cell adhesion test, NIH3T3; type: cell-based; details: for adhesion inhibiting effect: NIH3T3, concentration of 0.5uM, FIG. 15C; for βig-h3-mediated cell adhesion: NIH3T3, βig-h3 5 ug/ml coat
Description: (§1) Human βig-h3 was introduced into a 96-well plate at a concentration of 5 ug/ml, and coated for 14 hours at 4° C. In DMEM+0.5% BSA (Bovine Serum Albumin) culture medium, human fibroblast (NIH3T3) was introduced, and hsdhFas-1 peptide at concentrations was injected thereto, followed by mixing. The resultant mixture was cultured at 37° C. for 30 minutes, and plated on a coated well. It was cultured for 2 hours, and washed with PBS (phosphate buffered saline) so as to remove unattached cells, and then added with a substrate (4-Nitrophenyl N-acetyl-β-D-glucosaminide, Sigma, U.S.) to be activated by β-N-acetylglucosaminidase within the cell, followed by culturing at 37° C. for 1 hour. Then, a glycine EDTA solution (0.5M EDTA, 50 mM glycine, pH 10.4) was added thereto, and the coloring extent according to the number of attached cells was measured by absorbance.
Also, a structurally modified peptide of a fas-1 domain of mouse βig-h3 was synthesized as a recombinant peptide (hereinafter, referred to as ‘mdhFas-1peptide’, see FIG. 2), and a mouse cell line, that is, NIH3T3 cell line, was used to test the inhibiting effect by mdhFas-1 peptide on adhesion and migration of a Synovial membrane cell in the same manner as that in the test using human βig-h3.
as §1, with “βig-h3” for “Human βig-h3”, “mouse” for “human”, “MFK23, MFK24, MFK25 or MFK27” for “hsdhFas-1 peptide”

[2] = Toxicity test in CIA mouse (weight, serologic test, blood test); details: CIA mouse, 22nd day vs 48th day
Description: On the 48th day, a serologic test and a blood test were carried out.

NIH3T3 = experiment: βig-h3-mediated cell migration test (transwell), NIH3T3; type: cell-based, mouse; details: 7 hours
Description: In the lower compartment of a transwell filter having an 8 um hole size allowing cells to be migrated, βig-h3 was cultured at 4° C. for 12 to 14 hours and coated. In DMEM+0.5% BSA culture medium, NIH3T3 was introduced, and administered with MFK23, MFK24 or MFK25 at concentrations, followed by mixing. The resultant mixture was cultured at 37° C. for 30 minutes, inoculated into the upper chamber of the coated well, and cultured for 7 hours at 37° C. Then, the cells migrated to the lower compartment of the filter were fixed by paraformaldehyde, and strained by a crystal violet. The cells […] remaining in the upper chamber were wiped out and the number of cells migrated to the lower compartment was microscopically counted.

[3] = system: collagen-induced arthritis (CIA) mouse model; experiment: Arthritis therapeutic effect in CIA mouse (clinical arthritis index); type: in vivo
Description: A CIA mouse model having the similar characteristic to that of human rheumatoid arthritis was prepared according to the description in a known literature (Protocol for the successful induction of collagen-induced arthritis (CIA) and collagen antibody-induced arthritis (CAIA) in mice. Chondrex, Redmond, Wash.): Bovine type 2 collagen 100 ug was mixed with Freund's complete adjuvant, and hypodermically inoculated into the tail of the mouse. After 3 weeks, bovine type 2 collagen 100 ug was mixed with Freund's incomplete adjuvant, and inoculated again into the tail of the mouse. Then, the mouse was used in the experiment.
In order to find out the therapeutic effect of arthritis in a CIA model, for four weeks from the onset (the 23rd day) of arthritis following the second injection of the bovine type 2 collagen, MFK23 or MFK24 was daily injected into the abdominal cavity in doses of 0.1 mg/kg, 1 mg/kg, 10 mg/kg and 30 mg/kg. As a control group, the same amount of PBS was injected into the abdominal cavity. From the 23rd day to the 50th day, by using a Clinical arthritis index, the severity of arthritis was daily determined. The determination was based on the following data.
0; no symptom, 1; edema in one articulation or light edema, 2; severe edema in 2 or more articulations, 3; severe edema in most articulations, 4; severe edema in the whole of legs.

MMP2 = target: T1, MMP2 (Homo sapiens, UniProt P08253); experiment: Enzymatic digestion test, MMP2; type: biochemical; details: 3 ug peptide, MMP2 100, 200, 800 ng, 37° C. 4 hours
T1 sequence (P08253 110-660): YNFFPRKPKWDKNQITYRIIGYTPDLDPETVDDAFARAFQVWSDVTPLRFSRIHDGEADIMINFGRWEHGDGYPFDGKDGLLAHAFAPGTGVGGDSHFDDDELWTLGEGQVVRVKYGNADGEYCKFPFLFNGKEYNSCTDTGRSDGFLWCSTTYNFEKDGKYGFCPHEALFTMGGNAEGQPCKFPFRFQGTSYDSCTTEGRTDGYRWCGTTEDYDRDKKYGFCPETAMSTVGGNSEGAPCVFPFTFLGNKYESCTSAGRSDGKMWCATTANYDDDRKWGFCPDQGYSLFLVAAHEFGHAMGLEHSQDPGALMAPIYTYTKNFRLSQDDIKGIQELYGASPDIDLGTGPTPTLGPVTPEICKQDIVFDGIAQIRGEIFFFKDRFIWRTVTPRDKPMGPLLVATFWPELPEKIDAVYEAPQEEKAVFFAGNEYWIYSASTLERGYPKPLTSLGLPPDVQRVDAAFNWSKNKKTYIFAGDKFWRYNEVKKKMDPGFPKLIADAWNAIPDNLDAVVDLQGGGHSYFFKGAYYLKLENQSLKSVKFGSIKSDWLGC
Description: (§2) 3 ug of synthesized mdhFas-1-MMPsubstrate structure modified protein, together with MMP1 (5 ng, 10 ng and 50 ng), MMP2 (100 ng, 200 ng and 800 ng), MMP3 (10 ng, 50 ng and 100 ng), cathepsin D (5 ng, 10 ng and 50 ng), cathepsin L (100 ng, 200 ng and 800 ng), and cathepsin K (10 ng, 50 ng and 100 ng), was mixed with enzyme buffer (150 mM NaCl, 5 mM. CaCl2, 20 mM Tris-HCl pH7.5), and reacted at 37° C. for 4 hours. The resultant product was subjected to electrophoresis through 15% polyacrylamide gel, transferred to a Nitrocellulose Membrane (Schleicher & Schuell), blocked at room temperature for 1 hour with TBST solution containing 3% BSA (20 mmole/L Tris-HCl, 137 mmole//l NaCl, 0.1% Tween-20), washed TBST solution three times (each for 10 minutes), and reacted with primary antibody (anti-Histidine or anti-Bigh3) for 1 hour. The resultant product was washed with TBST solution three times (each for 10 minutes), reacted with a secondary antibody conjugated to horseradish peroxidase (HRP) for 1 hour, washed TBST solution three times (each for 10 minutes), and visualized by ECL (Amersham Biosciences, UK) so as to detect the change in the amount of mdhFas-1-MMPsubstrate-RGD structural peptide.

MMP3 = MMP3 (Homo sapiens, UniProt P08254); experiment: Enzymatic digestion test, MMP3; type: biochemical; details: 3 ug peptide, MMP3 10, 50, 100 ng, 37° C. 4 hours
Description: as §2

cathepsin L = cathepsin L (Homo sapiens, UniProt P07711); experiment: Enzymatic digestion test, cathepsin L; type: biochemical; details: 3 ug peptide, cathepsin L 100, 200, 800 ng, 37° C. 4 hours
Description: as §2

MMP1 = target: T2, MMP1 (Homo sapiens, UniProt P03956); experiment: Enzymatic digestion test, MMP1; type: biochemical; details: 3 ug peptide, MMP1 5, 10, 50 ng, 37° C. 4 hours
T2 sequence (P03956 100-469): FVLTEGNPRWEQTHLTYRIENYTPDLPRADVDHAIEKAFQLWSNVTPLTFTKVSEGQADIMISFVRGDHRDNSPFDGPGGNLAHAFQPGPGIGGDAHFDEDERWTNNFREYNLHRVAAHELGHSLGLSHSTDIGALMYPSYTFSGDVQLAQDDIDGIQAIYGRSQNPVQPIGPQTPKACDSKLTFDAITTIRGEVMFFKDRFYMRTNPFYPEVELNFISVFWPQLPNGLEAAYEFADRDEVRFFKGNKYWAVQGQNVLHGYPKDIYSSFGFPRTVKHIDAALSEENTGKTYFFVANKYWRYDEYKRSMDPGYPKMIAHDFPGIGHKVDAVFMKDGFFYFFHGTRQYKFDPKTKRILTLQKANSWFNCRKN
Description: as §2

cathepsin K = target: T3, cathepsin K (Homo sapiens, UniProt P43235); experiment: Enzymatic digestion test, cathepsin K; type: biochemical; details: 3 ug peptide, cathepsin K 10, 50, 100 ng, 37° C. 4 hours
T3 sequence (P43235 115-329): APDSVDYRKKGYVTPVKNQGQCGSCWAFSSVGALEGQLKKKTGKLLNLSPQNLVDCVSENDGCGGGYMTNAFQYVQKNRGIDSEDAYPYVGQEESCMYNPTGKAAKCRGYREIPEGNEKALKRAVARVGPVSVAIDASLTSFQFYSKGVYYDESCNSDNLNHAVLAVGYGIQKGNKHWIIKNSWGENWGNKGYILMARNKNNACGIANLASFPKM
Description: as §2

cathepsin D = cathepsin D (Homo sapiens, UniProt P07339); experiment: Enzymatic digestion test, cathepsin D; type: biochemical; details: 3 ug peptide, cathepsin D 5, 10, 50 ng, 37° C. 4 hours
Description: as §2

Chain of MMP3 (P08254 100-477, species assumed): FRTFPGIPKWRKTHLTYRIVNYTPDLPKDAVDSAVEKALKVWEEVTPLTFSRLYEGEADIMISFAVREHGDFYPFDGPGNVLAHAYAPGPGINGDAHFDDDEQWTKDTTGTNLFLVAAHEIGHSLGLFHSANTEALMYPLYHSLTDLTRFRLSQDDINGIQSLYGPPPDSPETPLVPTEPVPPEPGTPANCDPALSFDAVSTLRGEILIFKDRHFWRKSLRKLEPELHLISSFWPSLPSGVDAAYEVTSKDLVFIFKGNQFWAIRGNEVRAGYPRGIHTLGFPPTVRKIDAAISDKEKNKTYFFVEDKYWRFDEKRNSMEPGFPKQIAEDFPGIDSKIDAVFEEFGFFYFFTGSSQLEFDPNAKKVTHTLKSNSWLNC
Chain of cathepsin L (P07711 114-333, species assumed): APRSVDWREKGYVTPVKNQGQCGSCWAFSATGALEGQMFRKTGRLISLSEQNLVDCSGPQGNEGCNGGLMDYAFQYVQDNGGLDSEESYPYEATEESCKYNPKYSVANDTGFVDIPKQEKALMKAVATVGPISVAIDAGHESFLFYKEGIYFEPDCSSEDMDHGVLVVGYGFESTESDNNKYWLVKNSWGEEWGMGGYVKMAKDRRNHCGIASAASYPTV
Chain of cathepsin D (P07339 65-412, species assumed): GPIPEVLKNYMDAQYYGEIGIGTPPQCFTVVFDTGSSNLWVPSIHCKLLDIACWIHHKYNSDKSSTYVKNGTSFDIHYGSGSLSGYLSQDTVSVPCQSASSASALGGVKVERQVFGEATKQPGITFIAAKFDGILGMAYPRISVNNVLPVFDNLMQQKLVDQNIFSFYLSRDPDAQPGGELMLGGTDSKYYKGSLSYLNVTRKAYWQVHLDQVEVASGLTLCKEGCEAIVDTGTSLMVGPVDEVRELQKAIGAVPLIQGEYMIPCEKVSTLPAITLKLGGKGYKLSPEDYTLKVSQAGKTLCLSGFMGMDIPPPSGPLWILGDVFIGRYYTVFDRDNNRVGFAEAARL

With “RGDSP (amino acid chain comprising ′RGD′) [reference compound]” the adhesion inhibiting effect [1] was 0%.

B1: MFK27: fusion peptide having sequential links of mdhFas-1, MMP3 substrate GPLGLWARG (SEQ ID NO: 8), and QERGDSLA (SEQ ID NO: 10) (protein)
chain: MALLMRLLTLALALSVGPAGTLARSQAMPPEELNKLLANAKELTNILKYHIGDEILVSGGIGALVRLKSLQGDKLEVSSKNNVVSVNKEPVAETDIMEFGPLGLWARGVDQERGDSLAGLE
modifications: MFK27
With B1 the βig-h3-mediated cell adhesion [1] was “even at a very low concentration can inhibit the cell adhesion; also recorded: concentration-dependently inhibited”.

B2: mdhFas-1: peptide prepared by removing H1 and H2 regions from the fourth fas-1 domain of mouse βig-h3 (protein)
chain: QAMPPEELNKLLANAKELTNILKYHIGDEILVSGGIGALVRLKSLQGDKLEVSSKNNVVSVNKEPVAETDIM
modifications: mdhFas-1
notes: peptide prepared by removing H1 and H2 regions from the fourth fas-1 domain of mouse βig-h3
In the case of B2, the adhesion inhibiting effect [1] is reported as 50%, the βig-h3-mediated cell adhesion [1] is reported as “concentration-dependently inhibited” and the “body weight change compared to control group” value [2] is reported as “abnormal findings in the weight change were not observed”. For the same molecule, the βig-h3-mediated cell migration (NIH3T3) was “concentration-dependently inhibited”, the “arthritis inhibition (clinical arthritis index)” value ([3]; 10 mg/kg daily) was “about 32%” and the “arthritis inhibition (clinical arthritis index)” value ([3]; 30 mg/kg daily) was “about 69%”. The “arthritis inhibiting effect (clinical arthritis index), in words” value ([3]; daily into the abdominal cavity) was “concentration-dependently inhibited”.

B3: MFK25: fusion peptide having sequential links of mdhFas-1, MMP consensus substrate GPLGIAG (SEQ ID NO: 7), and QERGDSLA (SEQ ID NO: 10) (protein)
chain: QAMPPEELNKLLANAKELTNILKYHIGDEILVSGGIGALVRLKSLQGDKLEVSSKNNVVSVNKEPVAETDIMEFGPLGIAGVDGQERGDSLAGLE
modifications: MFK25
With B3 the “cleavage through treatment with MMP-2” value (MMP2) was “concentration-dependently cleaved”, the “cleavage through treatment with MMP-3” value (MMP3) was “concentration-dependently cleaved; also recorded: well cleaved” and the βig-h3-mediated cell adhesion [1] was “even at a very low concentration can inhibit the cell adhesion; also recorded: concentration-dependently inhibited”. For the same molecule, the “cleavage through treatment with cathepsin L” value (cathepsin L) was “not cleaved”, the βig-h3-mediated cell migration (NIH3T3) was “inhibited the cell migration; also recorded: concentration-dependently inhibited” and the “cleavage through treatment with MMP-1” value (MMP1) was “concentration-dependently cleaved; also recorded: well cleaved”. For the same molecule, the “cleavage through treatment with cathepsin K” value (cathepsin K) was “not cleaved” and the “cleavage through treatment with cathepsin D” value (cathepsin D) was “not cleaved”.
